pIC50: −log10 of the molar value.

The first assay has as its target HLA-B*53:01. Briefly: IEDB peptide-MHC binding, purified MHC/competitive/radioactivity; ≥ and ≤ were set here for values at or beyond the usual limits of such assays. As to conditions: source organism: Bordetella pertussis.
For the sequence AQQLKQADR, the negative-log IC50 (pIC50) was 4.33.

As for VVDGPPSRP, the pIC50 was 4.16.

On to LPLKANPMH, for which the negative-log IC50 (pIC50) was at most 4.11.

As for LPVSLTALD, the negative-log IC50 (pIC50) is 4.64.

In the case of FVWYVDTVI, the pIC50 was 4.52.

Turning to TFEGKPALE, the negative-log IC50 (pIC50) is 4.34.

Consider AIRVGRGAR, for which the pIC50 is 4.28.

Another assay has as its target HLA-B*44:03. Described as above. As to conditions: source organism: Bordetella pertussis.
TRQGIMDQY: the negative-log IC50 (pIC50) is 4.19.

As for PELGAAIRV, the negative logarithm of the IC50 (pIC50) is 5.19.

On to TTEYPNARY, for which the pIC50 was 4.20.

In a further assay the target is HLA-A*02:01. Described as above. As to conditions: source organism: Bordetella pertussis.
Consider GIGALKAGA, for which the pIC50 is 4.16.

Take VSSPPPVSV: the pIC50 is 4.31.

Regarding ILLENPAAE, the negative logarithm of the IC50 (pIC50) is 4.73.

As to FVWYVDTVI, the negative logarithm of the IC50 (pIC50) is 6.10.

Consider SLFAPHGNV, for which the pIC50 was 5.15.

The target in another assay is HLA-B*35:01. Described as above. As to conditions: source organism: Bordetella pertussis.
On to EVAKVEVVP, for which the pIC50 is 4.16.

Consider LPVSLTALD, for which the negative-log IC50 (pIC50) is 5.15.

MDAKGGTLL: the pIC50 is 4.16.

Turning to VPASGAPAA, the negative logarithm of the IC50 (pIC50) is 5.33.

For the next assay, the target named is HLA-B*57:01. The description is as above. As to conditions: source organism: Bordetella pertussis.
Take DNEGKMESN: the negative logarithm of the IC50 (pIC50) was at most 4.15.

For the sequence RGSAATFTL, the pIC50 was 4.97.

In a further assay the target is HLA-B*07:02. The assay is described as above. As to conditions: source organism: Bordetella pertussis.
As for QPLPPRPVA, the pIC50 was 5.08.

A word on the pIC50: it is −log10 of the IC50, conventionally taken in molar units.
